Here are results for one substance from patent US20110263014.

Where a chain is given by its changes, count along the chain named.

Data set [1] deals with T1, mNanog (D67G) (UniProt Q80Z64).
T1 sequence: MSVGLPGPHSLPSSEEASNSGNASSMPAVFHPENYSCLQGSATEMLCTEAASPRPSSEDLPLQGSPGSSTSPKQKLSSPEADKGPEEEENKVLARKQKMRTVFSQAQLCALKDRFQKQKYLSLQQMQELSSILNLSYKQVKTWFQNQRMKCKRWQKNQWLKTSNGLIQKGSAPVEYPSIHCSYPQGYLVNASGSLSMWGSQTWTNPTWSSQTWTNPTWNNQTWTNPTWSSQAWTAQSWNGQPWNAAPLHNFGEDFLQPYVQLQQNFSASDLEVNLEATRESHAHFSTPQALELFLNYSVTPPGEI

For data set [2], the target named is T2, mouse Nanog (mNanog) (UniProt Q80Z64).
T2 sequence: T1 sequence with G67D

Turning to recombinant caspase-9, in data set [1], the “cleavage of immunoprecipitated mNanog (D67G) by recombinant caspase” value was “Mutation D67G in mNanog greatly diminished cleavage of mNanog by caspase-9”. Besides, in data set [2], the “cleavage of immunoprecipitated mNanog by recombinant caspase” value is on record as “Only caspase-9 effectively cleaved mNanog into a 27 kDa fragment” and the “in vitro caspase cleavage assay” value was “caspase-9 can effectively cleave in vitro-translated mNanog”.
